# Results taken from article PMC2756588.
# T1: Cyk3, Q07533
# T1 sequence (Q07533 1-83, looked up): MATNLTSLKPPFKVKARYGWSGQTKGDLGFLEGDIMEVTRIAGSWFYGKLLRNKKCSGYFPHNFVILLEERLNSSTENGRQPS
# T2: Sla1-3, P32790
# T2 sequence (P32790 344-424, looked up): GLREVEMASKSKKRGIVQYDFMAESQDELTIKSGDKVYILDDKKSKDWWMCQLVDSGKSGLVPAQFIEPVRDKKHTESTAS
# T3: Bzz1-1, P38822
# T3 sequence (P38822 478-572, looked up): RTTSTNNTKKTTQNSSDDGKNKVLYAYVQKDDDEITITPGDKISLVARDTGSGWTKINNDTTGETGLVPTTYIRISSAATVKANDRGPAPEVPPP
# T4: Cdc25, P04821
# T4 sequence (P04821 50-136, looked up): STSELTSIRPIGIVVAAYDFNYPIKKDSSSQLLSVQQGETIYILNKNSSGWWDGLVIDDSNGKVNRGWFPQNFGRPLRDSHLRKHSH
# T5: Fus1, P11710
# T5 sequence (P11710 432-512, looked up): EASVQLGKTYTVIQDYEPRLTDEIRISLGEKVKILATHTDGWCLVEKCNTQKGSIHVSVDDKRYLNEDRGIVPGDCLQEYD
# T6: Pin3, Q06449
# T6 sequence (Q06449 53-122, looked up): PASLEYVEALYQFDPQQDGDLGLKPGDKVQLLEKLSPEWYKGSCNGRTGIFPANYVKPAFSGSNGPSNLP
# T7: Lsb1, P53281
# T7 sequence (P53281 45-122, looked up): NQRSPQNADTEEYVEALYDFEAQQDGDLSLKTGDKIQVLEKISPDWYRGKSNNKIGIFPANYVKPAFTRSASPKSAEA
# T8: Lsb3, P43603
# T8 sequence (P43603 385-451, looked up): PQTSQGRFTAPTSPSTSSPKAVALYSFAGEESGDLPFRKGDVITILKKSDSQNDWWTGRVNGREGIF
# T9: Hse1, P38753
# T9 sequence (P38753 208-285, looked up): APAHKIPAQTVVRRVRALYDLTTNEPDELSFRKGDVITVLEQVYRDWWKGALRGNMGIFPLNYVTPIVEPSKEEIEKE
# T10: Bzz1-2, P38822
# T10 sequence (P38822 568-633, looked up): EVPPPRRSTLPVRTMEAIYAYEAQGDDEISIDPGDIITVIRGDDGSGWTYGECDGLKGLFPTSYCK
# T11: Lsb4, P32793
# T11 sequence (P32793 402-468, looked up): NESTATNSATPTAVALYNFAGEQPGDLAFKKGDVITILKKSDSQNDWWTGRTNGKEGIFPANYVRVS
# T12: Boi1, P38041
# T12 sequence (P38041 1-86, looked up): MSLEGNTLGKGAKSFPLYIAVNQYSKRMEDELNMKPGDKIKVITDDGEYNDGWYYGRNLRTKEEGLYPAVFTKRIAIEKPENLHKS
# T13: Abp1, P15891
# T13 sequence (P15891 535-592, looked up): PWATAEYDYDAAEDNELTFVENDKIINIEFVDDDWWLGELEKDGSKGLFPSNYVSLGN
# T14: Myo5, Q04439
# T14 sequence (Q04439 1072-1160, looked up): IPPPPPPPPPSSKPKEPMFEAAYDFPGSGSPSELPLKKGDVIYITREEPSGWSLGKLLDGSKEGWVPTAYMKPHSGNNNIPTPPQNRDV
# T15: Bbc1, P47068
# T15 sequence (P47068 1-78, looked up): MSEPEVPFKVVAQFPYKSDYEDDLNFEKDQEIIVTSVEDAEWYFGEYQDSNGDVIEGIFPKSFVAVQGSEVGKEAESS
# T16: Sla1-2, P32790
# T16 sequence (P32790 60-140, looked up): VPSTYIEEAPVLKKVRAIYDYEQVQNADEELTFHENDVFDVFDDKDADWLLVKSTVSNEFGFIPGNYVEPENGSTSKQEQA
# T17: Pex13, P80667
# T17 sequence (P80667 295-386, looked up): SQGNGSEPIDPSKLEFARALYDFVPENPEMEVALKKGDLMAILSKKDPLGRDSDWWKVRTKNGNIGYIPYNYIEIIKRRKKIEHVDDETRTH
# T18: Hof1, Q05080
# T18 sequence (Q05080 590-669, looked up): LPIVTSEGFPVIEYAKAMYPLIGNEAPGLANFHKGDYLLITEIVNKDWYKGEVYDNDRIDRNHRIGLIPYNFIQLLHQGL
# T19: Boi2, P39969
# T19 sequence (P39969 32-116, looked up): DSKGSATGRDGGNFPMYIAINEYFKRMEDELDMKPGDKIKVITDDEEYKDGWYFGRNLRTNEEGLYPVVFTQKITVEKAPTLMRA
# T20: Bud14, P27637
# T20 sequence (P27637 247-328, looked up): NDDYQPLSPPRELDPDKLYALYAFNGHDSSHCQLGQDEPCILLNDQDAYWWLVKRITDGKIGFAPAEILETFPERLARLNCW
# T21: Nbp2, Q12163
# T21 sequence (Q12163 103-180, looked up): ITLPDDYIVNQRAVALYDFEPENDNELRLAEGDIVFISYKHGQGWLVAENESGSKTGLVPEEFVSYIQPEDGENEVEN
# Biological target: T1, Cyk3, Q07533
# Experiment: SPOT array
# Details: median of control spots 1451
row,SPOT intensity,Binder
1,0,QQNRPLPQLPNRNNR
2,0,GATNNAPTLPKRKNP
3,0,VQPTAAPATPPRHIS

# Biological target: Bem1-2, P29366
# Experiment: SPOT array
# Details: median of control spots 4347
# Sequence of Bem1-2, P29366 (P29366 139-227): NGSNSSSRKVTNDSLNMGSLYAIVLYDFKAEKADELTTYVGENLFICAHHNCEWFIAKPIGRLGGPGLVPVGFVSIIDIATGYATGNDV
row,SPOT intensity,Binder
1,1,QQNRPLPQLPNRNNR
2,9,GATNNAPTLPKRKNP
3,0,VQPTAAPATPPRHIS

# Biological target: T2, Sla1-3, P32790
# Experiment: SPOT array
# Details: median of control spots 5475
row,SPOT intensity,Binder
1,10,QQNRPLPQLPNRNNR
2,1,GATNNAPTLPKRKNP
3,5,VQPTAAPATPPRHIS

# Biological target: T3, Bzz1-1, P38822
# Experiment: SPOT array
# Details: median of control spots 4446
row,SPOT intensity,Binder
1,4,QQNRPLPQLPNRNNR
2,0,GATNNAPTLPKRKNP
3,0,VQPTAAPATPPRHIS

# Biological target: GST
# Experiment: SPOT array
# Details: median of control spots 978
row,SPOT intensity,Binder
1,0,QQNRPLPQLPNRNNR
2,0,GATNNAPTLPKRKNP
3,0,VQPTAAPATPPRHIS

# Biological target: T4, Cdc25, P04821
# Experiment: SPOT array
# Details: median of control spots 969
row,SPOT intensity,Binder
1,2,QQNRPLPQLPNRNNR
2,1,GATNNAPTLPKRKNP
3,2,VQPTAAPATPPRHIS

# Biological target: Myo3, P36006
# Experiment: SPOT array
# Details: median of control spots 468
row,SPOT intensity,Binder
1,0,QQNRPLPQLPNRNNR
2,0,GATNNAPTLPKRKNP
3,0,VQPTAAPATPPRHIS

# Biological target: T5, Fus1, P11710
# Experiment: SPOT array
# Details: median of control spots 1200
row,SPOT intensity,Binder
1,2,QQNRPLPQLPNRNNR
2,2,GATNNAPTLPKRKNP
3,13,VQPTAAPATPPRHIS

# Biological target: T6, Pin3, Q06449
# Experiment: SPOT array
# Details: median of control spots 2171
row,SPOT intensity,Binder
1,34,QQNRPLPQLPNRNNR
2,0,GATNNAPTLPKRKNP
3,0,VQPTAAPATPPRHIS

# Biological target: T7, Lsb1, P53281
# Experiment: SPOT array
# Details: median of control spots 388
row,SPOT intensity,Binder
1,176,QQNRPLPQLPNRNNR
2,64,GATNNAPTLPKRKNP
3,45,VQPTAAPATPPRHIS

# Biological target: T8, Lsb3, P43603
# Experiment: SPOT array
# Details: median of control spots 406
row,SPOT intensity,Binder
1,484,QQNRPLPQLPNRNNR
2,425,GATNNAPTLPKRKNP
3,251,VQPTAAPATPPRHIS

# Biological target: T9, Hse1, P38753
# Experiment: SPOT array
# Details: median of control spots 1727
row,SPOT intensity,Binder
1,23,QQNRPLPQLPNRNNR
2,1,GATNNAPTLPKRKNP
3,0,VQPTAAPATPPRHIS

# Biological target: T10, Bzz1-2, P38822
# Experiment: SPOT array
# Details: median of control spots 4538
row,SPOT intensity,Binder
1,0,QQNRPLPQLPNRNNR
2,0,GATNNAPTLPKRKNP
3,0,VQPTAAPATPPRHIS

# Biological target: T11, Lsb4, P32793
# Experiment: SPOT array
# Details: median of control spots 397
row,SPOT intensity,Binder
1,484,QQNRPLPQLPNRNNR
2,570,GATNNAPTLPKRKNP
3,251,VQPTAAPATPPRHIS

# Biological target: T12, Boi1, P38041
# Experiment: SPOT array
# Details: median of control spots 1162
row,SPOT intensity,Binder
1,1,QQNRPLPQLPNRNNR
2,12,GATNNAPTLPKRKNP
3,0,VQPTAAPATPPRHIS

# Biological target: T13, Abp1, P15891
# Experiment: SPOT array
# Details: median of control spots 935
row,SPOT intensity,Binder
1,228,QQNRPLPQLPNRNNR
2,36,GATNNAPTLPKRKNP
3,0,VQPTAAPATPPRHIS

# Biological target: T14, Myo5, Q04439
# Experiment: SPOT array
# Details: median of control spots 471
row,SPOT intensity,Binder
1,0,QQNRPLPQLPNRNNR
2,0,GATNNAPTLPKRKNP
3,0,VQPTAAPATPPRHIS

# Biological target: T15, Bbc1, P47068
# Experiment: SPOT array
# Details: median of control spots 796
row,SPOT intensity,Binder
1,40,QQNRPLPQLPNRNNR
2,6,GATNNAPTLPKRKNP
3,2,VQPTAAPATPPRHIS

# Biological target: T16, Sla1-2, P32790
# Experiment: SPOT array
# Details: median of control spots 712
row,SPOT intensity,Binder
1,0,QQNRPLPQLPNRNNR
2,92,GATNNAPTLPKRKNP
3,0,VQPTAAPATPPRHIS

# Biological target: T17, Pex13, P80667
# Experiment: SPOT array
# Details: median of control spots 1341
row,SPOT intensity,Binder
1,589,QQNRPLPQLPNRNNR
2,27,GATNNAPTLPKRKNP
3,0,VQPTAAPATPPRHIS

# Biological target: Rvs167, P39743
# Experiment: SPOT array
# Details: median of control spots 2707
# Sequence of Rvs167, P39743 (P39743 419-482): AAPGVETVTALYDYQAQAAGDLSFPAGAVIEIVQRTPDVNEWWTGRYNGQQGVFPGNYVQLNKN
row,SPOT intensity,Binder
1,1310,QQNRPLPQLPNRNNR
2,2550,GATNNAPTLPKRKNP
3,12,VQPTAAPATPPRHIS

# Biological target: T18, Hof1, Q05080
# Experiment: SPOT array
# Details: median of control spots 4086
row,SPOT intensity,Binder
1,112,QQNRPLPQLPNRNNR
2,0,GATNNAPTLPKRKNP
3,0,VQPTAAPATPPRHIS

# Biological target: Sho1, P40073
# Experiment: SPOT array
# Details: median of control spots 1148
# Sequence of Sho1, P40073 (P40073 287-367): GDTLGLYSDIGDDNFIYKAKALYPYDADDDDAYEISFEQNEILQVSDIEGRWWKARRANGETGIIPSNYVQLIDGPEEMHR
row,SPOT intensity,Binder
1,1600,QQNRPLPQLPNRNNR
2,2,GATNNAPTLPKRKNP
3,0,VQPTAAPATPPRHIS

# Biological target: T19, Boi2, P39969
# Experiment: SPOT array
# Details: median of control spots 1161
row,SPOT intensity,Binder
1,1,QQNRPLPQLPNRNNR
2,58,GATNNAPTLPKRKNP
3,0,VQPTAAPATPPRHIS

# Biological target: Bem1-1, P29366
# Experiment: SPOT array
# Details: median of control spots 4282
# Sequence of Bem1-1, P29366 (P29366 55-141): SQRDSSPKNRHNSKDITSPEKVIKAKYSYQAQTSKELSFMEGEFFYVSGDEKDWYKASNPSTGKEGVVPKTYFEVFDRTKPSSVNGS
row,SPOT intensity,Binder
1,3,QQNRPLPQLPNRNNR
2,0,GATNNAPTLPKRKNP
3,2,VQPTAAPATPPRHIS

# Biological target: T20, Bud14, P27637
# Experiment: SPOT array
# Details: median of control spots 956
row,SPOT intensity,Binder
1,4,QQNRPLPQLPNRNNR
2,0,GATNNAPTLPKRKNP
3,0,VQPTAAPATPPRHIS

# Biological target: T21, Nbp2, Q12163
# Experiment: SPOT array
# Details: median of control spots 357
row,SPOT intensity,Binder
1,0,QQNRPLPQLPNRNNR
2,0,GATNNAPTLPKRKNP
3,0,VQPTAAPATPPRHIS
